Measurements from patent US10556936B2, “Immunogenic proteins and fragments thereof from allergenic mites” (ALK-ABELLÓ A/S, priority 2016, dated 2020).
Marks after values point to notes of the source that are not given here.

B1: A010: house dust mite protein; SEQ ID NO: 41 (Der p), 42 (Der f), 308 (Blo t) (protein)
chain: DSLKCSSIRNEDRIDCNPDPPISKNVCEQRGCCWKTAGNDLKNLSSKVLPNLNVPYCYYGENYIGYKIEKHSKNLIQLKRNRSSGFARDIENINIEIHELNDKVIRLKFIDANKKRYEVPIPKLNLPSTTSSSSSNSRLYSVELDGSHLIVRRRETNQSIFDINLAYMVYSDQLIHVTSRLPSKYIYGLGEHRAPFRKNTNWKRYTQWTRDQYPVTDKALYGNHPFYLTVEDESPKKSASGVFLFNSNAMDIITQPSPAITFRTIGGILDFFVFFGPKPEDVISQYQNLIGLPAMPPFWSLGYQQCRYGYNNFTNLNTTYTRNRAVGIPMDVQWTDIDAFNSNNDFTYDHKRFKELPDFINNVLHPNGQKFIPMFDCGISSGEPAGSYKPFDSGVELDVFVKNSSNKIFRGKVWNGKSTVWPDFSHPNATEYWMDMFAEYHKTIAFDGAWLDMNEPSNFYNGEEHGCPESEIENPQYVPGMTDDSLTLRHKTLCMTARHYNDQLHYNLHNLYSLSMAMATNAALTKLNKRPFIISRATAPGHGHWAYHWNGDILSDWSSMRWTIPSILNFNMFGIPMVGADICGFGGNTAEELCIRWYQLGAFYSFARNHNDIHSIDQDPAALGESVIRAARSSLQYRYRFLAHLYTLFYHVHKNGGTVLRPMFFEFPHDEHTYEIETQFMWGDSVLIAPILYPNQTQHKIYLPKGTWYNRKVSFESQGQYITMNDSYDDIDYVFVRGGSIIPTQEPHDNTELMKTKDFLLIVALDNQTSYAKGSLYWDSGDSLNPDKTGHYNFYNFDAVNNTLTIQSQWLGYQTTQNINFINILGVPKLPTSFKLNGHVSDPRIIRFNYDEQTNILTVETKLPIYNQDSSSHDRIHYQFEWIME
B2: A011: house dust mite protein; SEQ ID NO: 39 (Der f), 40 (Der p), 309 (Blo t) (protein)
chain: KSAPEGCFRAAVLDHVHQTDARHLSNTAKIIDLNFKVYEDAAALAKKQGADIIVFPENGLIYSILSREKADEFASDIPDAEVNACTLDSKFVYNRLACLAQKHQMFVVADLIDRKSCEELGINNVSDSCPADKKFLFNTAVLFDRQGKLLGRYHKMHLFGEISMNPPPKPELLVIDTELGRLGMQICFDMIFKTPGYLLAQENKFDTMLFPTWWFDESPMLSSSQYQMAWAFGNNVTLLASNIHRIEVGSRGSGIYVGPHRTLAAALYDDSVERLVLANVPIKPKETDQSACPLDSEIIEVPQQIPIPKSVKYHHQNLNLKDVTLLQLSSNESEVHLCHKGVCCQFEYRLAMKDQPQESWVDRVPLLANMLHYLTPEERYYLLIANRTRPGAYPWSEEFCAVVVCPSSRWNFGKMQKDCSKIGSNQELSSRFVHAKLRGKFSEDTAVYPSAVGSKNQLIYPENKWKFWKVNVPNEPEYFIELGAKDNSESRAMELGALVLYGRNYNRDPRYEQKALPIN
B3: A009: house dust mite protein; SEQ ID NO: 43 (Der f), 44 (Der p), 307 (Blo t) (protein)
chain: VVIKVENLPEQCDYTQCPKWSKDDINVHLVAHTHDDVGWLKTVEQYYYGLKNDIQRAGVQYILDTMIEELIRNKDRRFIYVEIAFFWKWWQEQNEEQRMIVKELVRTGQLEFINGGWSMPDEAATHYNSLIDQSTWGLRQLNDTFGRCGHPKVTWQIDPFGHSKEMANLYAQMGYDALFFARQDYQDRENRMSNRTLEHVWQGSDDLGEIGDIFTGMMFSGYGPIEFNWDITNGPEDAVVDNPESEEYNVPDKIRRFVEKAKYFGQFYATNHFMFPMGTDFQYTDAHTWFKNLDKLINAVNKAGKGVRAFYSTPSCYAHALYEQNRTWTTKTDDFFPYASDEHAYWTGYFTSRPAIKRMERIGNNLLQACKQLDVLADNNGRFEMNLTKMREAMGVMQHHDAVTGTEKQHVAFNYAKMLDSAMLQCRHIINESYKKLLPKSSTSEHEFCPYLNISSCPTTEMGESRIIYLYNPLGHRLINHTVRLPIKNGYYYRIQDQNNQSVPSVLVPIPEFVQKIPGRKSVATKELVFRVPVIEPLGITTMYMYVDKNEQPNSAIEIKGENPDDNDDKSKWLVLTKNLIVEFYSNGTISRISIDKLHQSISISNEFRLYHGAGGTGRHSGAYIFRPNEQKTFPVTNKIKSTFFIDRKYHIVQEVHQQFDSSFVGQIIRMDKYNDNVEFDFVVGPIPVNDQIGKEIIASYKTDLENDETFYTDANGRQMLRRRWNYRPSWKYNVQEPISGNYYPVNSRIAIRDEKQSLQMTIMTDRSQGGSLSPEQINGSIDIMIHRRLLHDDYFGVGEALNEPGVDGHGLVIRGKHLLLLNSIKQSASEHRPLAQQMFMEPIISFTSIESNKQAEKQSNQYIGLNNDLPSNVHLLTLEQWHSKRYLLRLEHFYQSNEDTELSKPVKLSLRHLFKSFEIIAVEELTLGANQPISSLKNRLHYRYNRPLEQRQQQQSSLLLDDPKIEGENFDIHLSPMQIRTFLIDIKRN

tested on: T cell lines obtained from HDM allergic individuals and non-allergics; assay: In vitro T cell proliferation test in T cell lines (Example 3); format: cell-based, human; settings: T cell lines from HDM allergic individuals (n=30); 0.5 or 2 ug/ml; 72 h
Description: (§1) This example relates to the further testing of immunogenicity of the proteins identified in Example 1. Their ability to react with IgE antibodies in HDM allergic individuals, to stimulate in vitro T cell proliferation of HDM allergic individuals and non-allergics, and to stimulate ex vivo cytokine production of HDM allergic individuals and non-allergics. The following tests were used: • Basophil Activation Test (BAT) was used as a predictive in vitro assay for indication of safety/immediate hypersensitivity reactions. BAT test was carried out using blood from HDM allergic individuals (n=14), and by use of different concentrations of test proteins or the major house dust mite allergens (Der p 1, Der f 1, Der p 2 or Der f 2, e.g. a concentration of 1, 10, 100 or 1000 ng/ml. • In vitro T cell reactivity determined in T cell lines obtained from HDM allergic individuals (n=30) and non-allergics (n=8): Determined by establishment of HDM specific T-cell lines according to standard methods. In short, PMBCs from HDM allergic donors were cultured for 3 weeks in the presence of house dust mite allergen extract. The responses to proteins at a concentration of 0.5 ug/ml or 2 ug/ml of the test protein or the major house dust mite allergens (Der p 1, Der f 1, Der p 2 or Der f 2) were assessed by proliferation in a standard 72 h T cell proliferation assay, as described in Henmar H et al., Clin Exp Immunol 2008; 153(3):316-23. […]. • Ex vivo stimulation of PBMC cells obtained from mite allergic patients (n=16) and non-allergics (n=6): Determined by measuring the production of the cytokines; IFN-gamma, IL-9, IL-10, IL-17 and IL-31 following stimulation with test protein in concentration up to 10 ug/ml. Freshly isolated PBMC 5×10^6/ml were cultured with a test protein for 5 days and cell supernatant were harvested and stored at −80° C. Cytokines of the supernatants were measured using ProcartaPlex Multiplex Immunoassays with MAGPIX Multiplex Reader according manufactory protocol.

Molecule | % responders of in-vitro T cell proliferation test, Allergic
B1 | 100* %
B2 | 64%
B3 | 36%

same assay, conditions: T cell lines from non-allergics (n=8); 0.5 or 2 ug/ml; 72 h

Molecule | % responders of in-vitro T cell proliferation test, Non-allergics [%]
B1 | 14
B2 | 13
B3 | 63

tested on: PBMC cells obtained from mite allergic patients and non-allergics; assay: Ex vivo stimulation of PBMC: cytokine production (IFN-gamma, IL-9, IL-10, IL-17, IL-31); format: cell-based, human; settings: HDM allergic individuals; IL-5
Description: as §1

Molecule | % HDM allergic individuals with cytokine production in ex-vivo T cell assay IL-5 [%]
B1 | 31
B2 | 25
B3 | 0

same assay, conditions: HDM allergic individuals; IL-9

Molecule | % HDM allergic individuals with cytokine production in ex-vivo T cell assay IL-9 [%]
B1 | 13
B2 | 6
B3 | 0

same assay, conditions: HDM allergic individuals; IL-10

Molecule | % HDM allergic individuals with cytokine production in ex-vivo T cell assay IL-10 [%]
B1 | 38
B2 | 13
B3 | 94

same assay, conditions: HDM allergic individuals; IL-13

Molecule | % HDM allergic individuals with cytokine production in ex-vivo T cell assay IL-13 [%]
B1 | 44
B2 | 19
B3 | 6

same assay, conditions: HDM allergic individuals; IL-17

Molecule | % HDM allergic individuals with cytokine production in ex-vivo T cell assay IL-17 [%]
B1 | 13
B2 | 6
B3 | 19

same assay, conditions: HDM allergic individuals; IL-31

Molecule | % HDM allergic individuals with cytokine production in ex-vivo T cell assay IL-31 [%]
B1 | 6
B2 | 6
B3 | 0

same assay, conditions: HDM allergic individuals; INF-g

Molecule | % HDM allergic individuals with cytokine production in ex-vivo T cell assay INF-g [%]
B1 | 0
B2 | 0
B3 | 19

same assay, conditions: non-allergic individuals; IL-5

Molecule | % non-allergic individuals with cytokine production in ex-vivo T cell assay IL-5 [%]
B1 | 0
B2 | 0
B3 | 0

same assay, conditions: non-allergic individuals; IL-9

Molecule | % non-allergic individuals with cytokine production in ex-vivo T cell assay IL-9 [%]
B1 | 0
B2 | 0
B3 | 0

same assay, conditions: non-allergic individuals; IL-10

Molecule | % non-allergic individuals with cytokine production in ex-vivo T cell assay IL-10 [%]
B1 | 0
B2 | 0
B3 | 100

same assay, conditions: non-allergic individuals; IL-13

Molecule | % non-allergic individuals with cytokine production in ex-vivo T cell assay IL-13 [%]
B1 | 0
B2 | 0
B3 | 0

same assay, conditions: non-allergic individuals; IL-17

Molecule | % non-allergic individuals with cytokine production in ex-vivo T cell assay IL-17 [%]
B1 | 0
B2 | 0
B3 | 33

same assay, conditions: non-allergic individuals; IL-31

Molecule | % non-allergic individuals with cytokine production in ex-vivo T cell assay IL-31 [%]
B1 | 0
B2 | 0
B3 | 0

same assay, conditions: non-allergic individuals; INF-g

Molecule | % non-allergic individuals with cytokine production in ex-vivo T cell assay INF-g [%]
B1 | 0
B2 | 17
B3 | 50

tested on: basophils in whole blood from HDM allergic donors; assay: Basophil Activation Test (BAT); format: cell-based, human; settings: 1 ng/ml; blood from HDM allergic individuals (n=14)
Protocol: Basophil Activation Test (BAT) was used as a predictive in vitro assay for indication of safety/immediate hypersensitivity reactions. The BAT assay is a widely used diagnostic test that is also used for evaluation of allergenicity of allergen derived components. In short: whole blood from HDM allergic donors was stimulated for 1 h with the proteins, and the increased expression of activation markers on the surface of basophils were measured by flow cytometry. The BAT test was carried out using different concentrations of the proteins and the allergens Der p 2 and Der p 1 was used as controls and tested in the same concentration rates.
as §1

Molecule | # of individuals of 14 with positive BAT test
B1 | 0
B2 | 0
B3 | 0

same assay, conditions: 10 ng/ml; blood from HDM allergic individuals (n=14)

Molecule | # of individuals of 14 with positive BAT test
B1 | 0
B2 | 0
B3 | 0

same assay, conditions: 100 ng/ml; blood from HDM allergic individuals (n=14)

Molecule | # of individuals of 14 with positive BAT test
B1 | 0
B2 | 0
B3 | 0

same assay, conditions: 1000 ng/ml; blood from HDM allergic individuals (n=14)

Molecule | # of individuals of 14 with positive BAT test
B1 | 1
B2 | 1
B3 | 3
